27 variants from the supplement of paper PMC7125110 can be followed below.

The labels stand for the following.
B1: glmS ribozyme (parent)
chain: AUAAAAGCGCCAGAACUACAGAAAUGUAGUUGACGAGGAGGAGGUUUAUCGAAUUUUCGGCGGAUGCCUCCAAA

± gives the standard error. This sample holds only a part of the variants without activity.

Holding throughout (settings): with glucosamine-6-phosphate
The variants in data set [1] derive from B1. The data set can be described thus: self-cleavage kobs at 40 uM GlcN6P; higher = faster cleavage; RNA array. The gist of the method: (§1)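 Weighted Michaelis–Menten fits across concentrations supplied kcat and KM, based on kobs from one- or two-exponential decay fits to normalised per-tile medians. The data came from barcoded ribozyme variants transcribed in situ by E. coli RNA polymerase on sequenced MiSeq chips and tracked at 37 °C by a hybridised Cy3 probe. Glucosamine-6-phosphate (40 μM to 10 mM) in HEPES/KCl/Mg(OAc)2 buffer was flowed in.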

In data set [2] the parent is B1. The data set can be described thus: self-cleavage kobs at 640 uM GlcN6P; higher = faster cleavage; RNA array. The method in brief:
as §1

Variants of B1 are the subject of data set [3]. The data set can be described thus: self-cleavage kobs at 160 uM GlcN6P; higher = faster cleavage; RNA array. The gist of the method:
as §1

Data set [4] covers variants of B1. The data set can be described thus: self-cleavage kobs at 2500 uM GlcN6P; higher = faster cleavage; RNA array. The gist of the method:
as §1

The variants in data set [5] derive from B1. The data set can be described thus: self-cleavage kobs at 10000 uM GlcN6P; higher = faster cleavage; RNA array. The gist of the method:
as §1

Consider AUAAAAGCGCGAGAACUACAGAAAUGUAGUUGACGACGAGGAGGUUUAUCGAAUAUUCGGCGGAUGCGUCCAAA, for which the “self-cleavage kobs at 40 uM GlcN6P” value in data set [1] is below 1e-05 s⁻¹. Besides, in data set [2], the “self-cleavage kobs at 640 uM GlcN6P” value came to 0.000386 ± 0.00018 s⁻¹.

With AUAAAAGCCGCAGAACUACAGAAAUGUAGUUGACGAGGAGGAGGUUUAUCGAAUUUUCGGCGGAUGCCUCCAAA, the “self-cleavage kobs at 40 uM GlcN6P” value in data set [1] was below 1e-05 s⁻¹. For the same variant, in data set [3], the “self-cleavage kobs at 160 uM GlcN6P” value is below 1e-05 s⁻¹. For the same variant, the “self-cleavage kobs at 640 uM GlcN6P” value in data set [2] was below 1e-05 s⁻¹. In data set [4], the “self-cleavage kobs at 2500 uM GlcN6P” value was below 1e-05 s⁻¹. Moreover, the “self-cleavage kobs at 10000 uM GlcN6P” value in data set [5] was below 1e-05 s⁻¹.

As to AUAAAAGCGCCAGAACUACAGAAAUGUAGUUGACGAGGACGAGGUUUAUCUAAUUUUCGGCGGAUGCCUCCAAA, the “self-cleavage kobs at 40 uM GlcN6P” value in data set [1] is below 1e-05 s⁻¹. For the same variant, the “self-cleavage kobs at 160 uM GlcN6P” value in data set [3] is below 1e-05 s⁻¹. Also, the “self-cleavage kobs at 640 uM GlcN6P” value in data set [2] is below 1e-05 s⁻¹. In addition, in data set [4], the “self-cleavage kobs at 2500 uM GlcN6P” value was below 1e-05 s⁻¹. Moreover, the “self-cleavage kobs at 10000 uM GlcN6P” value in data set [5] was below 1e-05 s⁻¹.

For AUAAAAGAGCCAGAACUACAGAAAUGUAGUUGACGAGGAGGAGGUUUAUAGAAUUUUCGGCGGAUGCCUCCAAA, the “self-cleavage kobs at 40 uM GlcN6P” value in data set [1] was below 1e-05 s⁻¹. In addition, the “self-cleavage kobs at 160 uM GlcN6P” value in data set [3] was below 1e-05 s⁻¹. Also, the “self-cleavage kobs at 640 uM GlcN6P” value in data set [2] was below 1e-05 s⁻¹. Also, the “self-cleavage kobs at 2500 uM GlcN6P” value in data set [4] was below 1e-05 s⁻¹. For the same variant, the “self-cleavage kobs at 10000 uM GlcN6P” value in data set [5] was below 1e-05 s⁻¹.

In the case of AUAAAAGCGCCAGAACUACAGAAAUGUAUUUGACGAGGAGGAGGUUUAUGGAAUUUUCGGCGGAUGCCUCCAAA, the “self-cleavage kobs at 40 uM GlcN6P” value in data set [1] turned out to be 5.51e-05 ± 1.5e-05 s⁻¹. Moreover, the “self-cleavage kobs at 160 uM GlcN6P” value in data set [3] was determined as 0.000992 ± 0.0003 s⁻¹. For the same variant, the “self-cleavage kobs at 640 uM GlcN6P” value in data set [2] was determined as 5.49e-05 ± 1.4e-05 s⁻¹.

Take AUAAAAUCGCCAGAACUACAGAAAUGUAGUUAACGAGGAGGAGGUUUAUCGAAUUUUCGGCGGAUGCCUCCAAA: the “self-cleavage kobs at 40 uM GlcN6P” value in data set [1] was below 1e-05 s⁻¹. Besides, the “self-cleavage kobs at 160 uM GlcN6P” value in data set [3] was below 1e-05 s⁻¹. For the same variant, in data set [2], the “self-cleavage kobs at 640 uM GlcN6P” value is below 1e-05 s⁻¹. The “self-cleavage kobs at 2500 uM GlcN6P” value in data set [4] was below 1e-05 s⁻¹. For the same variant, the “self-cleavage kobs at 10000 uM GlcN6P” value in data set [5] was below 1e-05 s⁻¹.

With CUAAAAGCGCUAGAACUACAGAAAUGUAGUUGACGAGGAGGAGGUUUAUCGAAUUUUCGGCGGGUGCCUCCAAA, in data set [1], the “self-cleavage kobs at 40 uM GlcN6P” value is 8.55e-05 ± 2.5e-05 s⁻¹. For the same variant, the “self-cleavage kobs at 10000 uM GlcN6P” value in data set [5] turned out to be 0.00142 ± 0.00035 s⁻¹.

As to AUAAAAGCGCCAGAACUACAGAAAUGUAGUUGACGAGGAGGAGGUUUAUCCAAUUUUCGGCGGAUGCCUACAAA, the “self-cleavage kobs at 40 uM GlcN6P” value in data set [1] is below 1e-05 s⁻¹. Moreover, in data set [2], the “self-cleavage kobs at 640 uM GlcN6P” value is below 1e-05 s⁻¹.

For AUAAAAUCGCCCGAACUACAGAAAUGUAGUUGACGAGGAGGAGGUUUAUGGAAUUUUCGGAGGAUGCCUCCAAA, the “self-cleavage kobs at 40 uM GlcN6P” value in data set [1] turned out to be 0.000187 ± 7.2e-05 s⁻¹. Moreover, the “self-cleavage kobs at 10000 uM GlcN6P” value in data set [5] turned out to be 0.000332 ± 0.00012 s⁻¹.

On to AUAAAAGGGCCAUAACUACAAAAAUGUAGAUGACGAGGAGGAGGUUUAUCGAAUUUUCGGCGGAUGCCUCCAAA, for which the “self-cleavage kobs at 40 uM GlcN6P” value in data set [1] was below 1e-05 s⁻¹. Also, the “self-cleavage kobs at 10000 uM GlcN6P” value in data set [5] is below 1e-05 s⁻¹.

Take AUAAAAGCGCCAGAACUACAGAAAUGUAGUUGACGAGGAGGAGGUCUAUCGAAUUUUCGCCGGAUGCCUCCAAA: in data set [1], the “self-cleavage kobs at 40 uM GlcN6P” value is below 1e-05 s⁻¹. In addition, the “self-cleavage kobs at 160 uM GlcN6P” value in data set [3] was below 1e-05 s⁻¹. The “self-cleavage kobs at 640 uM GlcN6P” value in data set [2] was below 1e-05 s⁻¹. The “self-cleavage kobs at 2500 uM GlcN6P” value in data set [4] is below 1e-05 s⁻¹. For the same variant, the “self-cleavage kobs at 10000 uM GlcN6P” value in data set [5] was below 1e-05 s⁻¹.

As for AUAAAAGCGCCAGAACUACAGAAAUGUAGUUGACGAGGAGGAGGUUUAUCGCAUUUUCGGCCGAUGCCUACAAA, in data set [1], the “self-cleavage kobs at 40 uM GlcN6P” value was below 1e-05 s⁻¹.

As for AUAAAAGUGCCAGAACUACAGAAAUGUAAUUGACGAGGAUGAGGAUUAUCGAAUUUUCGGCGGAUGCCUCCAAA, the “self-cleavage kobs at 40 uM GlcN6P” value in data set [1] was below 1e-05 s⁻¹. Further, the “self-cleavage kobs at 10000 uM GlcN6P” value in data set [5] is below 1e-05 s⁻¹.

On to AUAAAAGCGCCAGAACUACAGAAAUGUAGUUGACGAGGUGGAAGUUUAUUGAAUUUUCGGCGGAUGCCUCCAAA, for which the “self-cleavage kobs at 40 uM GlcN6P” value in data set [1] was below 1e-05 s⁻¹.

Consider AUAAAAGCGACAGAACUACAGAAAUGUAGUGGACGAGGAGGUGGUUUAUGGAAUUAUCGUCGGAUGCGUCAAAA, for which the “self-cleavage kobs at 40 uM GlcN6P” value in data set [1] came out at 4.77e-05 ± 2e-05 s⁻¹. Further, the “self-cleavage kobs at 640 uM GlcN6P” value in data set [2] was 0.00298 ± 0.00084 s⁻¹.

With AUAAAAGCGCCAGAACUACAGAAAUGUAGUCGACGAGGAGGAGUUUUAUCGAAUUUUCGGCGGAUGCCUCCAAA, the “self-cleavage kobs at 40 uM GlcN6P” value in data set [1] is below 1e-05 s⁻¹. The “self-cleavage kobs at 160 uM GlcN6P” value in data set [3] was below 1e-05 s⁻¹. For the same variant, the “self-cleavage kobs at 10000 uM GlcN6P” value in data set [5] was 2.15e-05 ± 1e-05 s⁻¹.

For AUAAAAGCGCGAGAACUACAGAAAUGUAGUGGACGAGGAGGAGGUUUAUCGAAUUUUCGGCGGAUGCCUCCAAA, the “self-cleavage kobs at 40 uM GlcN6P” value in data set [1] was below 1e-05 s⁻¹. In addition, the “self-cleavage kobs at 640 uM GlcN6P” value in data set [2] was below 1e-05 s⁻¹.

AUAAAAGCGCCUGAGCUACAGAAAUGUAGUUGACGAGGAGGAGGUUUAUCGAAUUUUCGGCGGAUGCCUCUAAA: in data set [1], the “self-cleavage kobs at 40 uM GlcN6P” value amounted to 0.00147 ± 0.00036 s⁻¹.

With AUAAAAGCGCCAGAACUACAGAAAUGUAGUUGACGAGGAGGAGGUUUAUCUAAUUUUAGUCGGAUGCCUCCAAA, the “self-cleavage kobs at 40 uM GlcN6P” value in data set [1] is below 1e-05 s⁻¹. Besides, the “self-cleavage kobs at 10000 uM GlcN6P” value in data set [5] was below 1e-05 s⁻¹.

For AUAAAAGCGCGAGAACUACAGAAAUGUAGUUGACGAGGAGGUGGUUUAUCGAAUUUUCGGCGGAUGCCUCCAAA, the “self-cleavage kobs at 40 uM GlcN6P” value in data set [1] is below 1e-05 s⁻¹. In data set [3], the “self-cleavage kobs at 160 uM GlcN6P” value is below 1e-05 s⁻¹. In addition, the “self-cleavage kobs at 640 uM GlcN6P” value in data set [2] is below 1e-05 s⁻¹. Further, the “self-cleavage kobs at 2500 uM GlcN6P” value in data set [4] was below 1e-05 s⁻¹. Further, the “self-cleavage kobs at 10000 uM GlcN6P” value in data set [5] is below 1e-05 s⁻¹.

Consider AUAAAAGCGCCAGAACUACAGAAAUGUAGUUGACGAGGAGGACGUUUAUCUAAUUUUCGGCGGAUGCCUCCAAA, for which the “self-cleavage kobs at 40 uM GlcN6P” value in data set [1] is below 1e-05 s⁻¹. Further, the “self-cleavage kobs at 10000 uM GlcN6P” value in data set [5] is below 1e-05 s⁻¹.

Consider AUAAAAGCGACAGAACUACAGAAAUGUAGUUGACGAGGAGUAGUUUUAUCGAAUUUUCGGCGGAUGCCUCCAAA, for which the “self-cleavage kobs at 40 uM GlcN6P” value in data set [1] is below 1e-05 s⁻¹. For the same variant, the “self-cleavage kobs at 160 uM GlcN6P” value in data set [3] was below 1e-05 s⁻¹. Also, in data set [2], the “self-cleavage kobs at 640 uM GlcN6P” value is below 1e-05 s⁻¹. In data set [4], the “self-cleavage kobs at 2500 uM GlcN6P” value was below 1e-05 s⁻¹.

As for AUAAAAGCGCCAGAGCUACAGAAAUGUAGUAGACGUGGAGGAGGUUUAUCGAAUUUUCGGCGGAUGCCUCCAAA, the “self-cleavage kobs at 40 uM GlcN6P” value in data set [1] was below 1e-05 s⁻¹.

For the variant AUAAAAGCGCACGAACUACAGAAAUGUAGUUGACGAGGAGGAGGUUUAUCGAAUUUUCGGCGGCUGCCUCCAAA, the “self-cleavage kobs at 40 uM GlcN6P” value in data set [1] was below 1e-05 s⁻¹. For the same variant, the “self-cleavage kobs at 2500 uM GlcN6P” value in data set [4] is below 1e-05 s⁻¹. The “self-cleavage kobs at 10000 uM GlcN6P” value in data set [5] was below 1e-05 s⁻¹.

For AUAAAAGCGCCAGAACUACAGAAAUGUAGUUUACGAGGACGAGGUUUAUCGAAUUUUCGGUGGAUGACUCCAAA, the “self-cleavage kobs at 40 uM GlcN6P” value in data set [1] is below 1e-05 s⁻¹.

For the variant AUAAAAGCGCCAGAACUACAGAAAUGUAGUUGACGAGGAGGACGUUGAUCGAAUUUUCGGCGGAUGCCUCCAAA, the “self-cleavage kobs at 40 uM GlcN6P” value in data set [1] was below 1e-05 s⁻¹. The “self-cleavage kobs at 640 uM GlcN6P” value in data set [2] was below 1e-05 s⁻¹. In addition, the “self-cleavage kobs at 10000 uM GlcN6P” value in data set [5] is below 1e-05 s⁻¹.

On to AUAAAAGCGCGAGAACUACAGAAAUGUAGUUGACGAGGAGGAGUUUUAUCGAAUUUUCGGCGGAUGCCUCCAAA, for which the “self-cleavage kobs at 40 uM GlcN6P” value in data set [1] is below 1e-05 s⁻¹. For the same variant, in data set [2], the “self-cleavage kobs at 640 uM GlcN6P” value is below 1e-05 s⁻¹. Besides, the “self-cleavage kobs at 10000 uM GlcN6P” value in data set [5] is below 1e-05 s⁻¹.
